Source: patent US20200247855A1, “THERAPY AND DIAGNOSTICS” (OXFORD UNIVERSITY INNOVATION LIMITED, priority 2017, published 2020)
Residue numbers refer to the chain shown, from its start. Entries after “also recorded” stand apart in the source; their conditions may differ. Read-outs that look alike come from different tables or passages of the source.

Experiments:
CCL5_HUMAN [1] = molecular target: T1, CCL5_HUMAN (Homo sapiens, UniProt P13501); experiment: Yeast surface display (YSD) FACS binding
T1 sequence (P13501 24-91): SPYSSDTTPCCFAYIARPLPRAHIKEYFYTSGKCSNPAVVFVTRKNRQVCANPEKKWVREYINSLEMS
In short: (§1)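 Yeast clones displaying tick peptides were re-tested by FACS with labelled chemokine. Binding = % of peptide-expressing yeast above a background threshold set with streptavidin-Alexa647 alone; the mean percent shift was used where several clones were isolated. Confirmed binding ("YES") required >3-fold over background mean fluorescence intensity.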

CCL17_HUMAN = molecular target: T2, CCL17_HUMAN (Homo sapiens, UniProt Q92583); experiment: Yeast surface display (YSD) FACS binding
T2 sequence (Q92583 24-94): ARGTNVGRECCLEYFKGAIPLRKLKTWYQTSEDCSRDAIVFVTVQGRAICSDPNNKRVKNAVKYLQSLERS
In short: as §1

CCL1_HUMAN = molecular target: T3, CCL1_HUMAN (Homo sapiens, UniProt P22362); experiment: Yeast surface display (YSD) FACS binding
T3 sequence (P22362 24-96): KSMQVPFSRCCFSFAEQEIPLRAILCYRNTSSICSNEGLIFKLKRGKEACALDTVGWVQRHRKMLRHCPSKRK
In short: as §1

CCL11_HUMAN [2] = molecular target: T4, CCL11_HUMAN (Homo sapiens, UniProt P51671); experiment: Yeast surface display (YSD) FACS binding
In short: as §1

CCL3_HUMAN [3] = molecular target: T5, CCL3_HUMAN (Homo sapiens, UniProt P10147); experiment: Yeast surface display (YSD) FACS binding
T5 sequence (P10147 24-92): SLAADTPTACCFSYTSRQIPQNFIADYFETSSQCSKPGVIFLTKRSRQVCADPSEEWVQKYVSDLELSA
In short: as §1

CCL19_HUMAN [4] = molecular target: T6, CCL19_HUMAN (Homo sapiens, UniProt Q99731); experiment: Yeast surface display (YSD) FACS binding
T6 sequence (Q99731 22-98): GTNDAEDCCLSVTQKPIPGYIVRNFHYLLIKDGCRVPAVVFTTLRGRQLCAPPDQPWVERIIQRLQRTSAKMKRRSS
In short: as §1

CXCL12_HUMAN = CXCL12_HUMAN (Homo sapiens, UniProt P48061); experiment: Yeast surface display (YSD) FACS binding; settings: yeast surface display
In short: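 Yeast clones displaying tick peptides were re-tested by FACS with labelled chemokine detected by streptavidin-Alexa conjugate. Binding was scored as % of peptide-expressing cells above a background set with streptavidin-Alexa alone, averaged over independent clones. In the screen tables, >3-fold over background mean fluorescence intensity was scored as binding.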

CCL18_HUMAN [5] = molecular target: T7, CCL18_HUMAN (Homo sapiens, UniProt P55774); experiment: Yeast surface display (YSD) FACS binding
T7 sequence (P55774 21-89): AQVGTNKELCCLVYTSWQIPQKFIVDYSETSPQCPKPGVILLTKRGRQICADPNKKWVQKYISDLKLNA
In short: as §1

CCL18_HUMAN [6] = molecular target: T7, CCL18_HUMAN; settings: read-out: Kd, CCL18_HUMAN, previously described evasins; data obtained from publications [20-22,32]; cited from earlier work
CCL8_HUMAN = molecular target: T8, CCL8_HUMAN (Homo sapiens, UniProt P80075); experiment: Biolayer interferometry (BLI) binding
T8 sequence (P80075 24-99): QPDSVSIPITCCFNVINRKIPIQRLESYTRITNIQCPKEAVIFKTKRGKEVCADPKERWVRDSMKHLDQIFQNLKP
In short: (§2)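 Analyte: chemokine, screened at 300 nM then as a dose series for binders. Ligand: purified His-tagged tick evasin on Ni-NTA sensors. Kd obtained by fitting association, equilibrium and dissociation traces.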

CCL4_HUMAN [7] = molecular target: T9, CCL4_HUMAN (Homo sapiens, UniProt P13236); settings: read-out: Kd, CCL4_HUMAN, previously described evasins; data obtained from publications [20-22,32]; cited from earlier work
T9 sequence (P13236 24-92): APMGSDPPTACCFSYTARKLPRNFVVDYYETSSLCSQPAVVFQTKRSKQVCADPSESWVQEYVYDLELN

CCL3_HUMAN [8] = molecular target: T5, CCL3_HUMAN; settings: read-out: Kd, CCL3_HUMAN, previously described evasins; data obtained from publications [20-22,32]; cited from earlier work
chemokines = settings: list of chemokines bound, from the literature [18,20-22]; listed as EVA1_RHISA; cited from earlier work
CCL3L1_HUMAN [9] = molecular target: T10, CCL3L1_HUMAN (Homo sapiens, UniProt P16619); settings: read-out: Kd, CCL3L1_HUMAN, previously described evasins; data obtained from publications [20-22,32]; cited from earlier work
CCL5_HUMAN [10] = molecular target: T1, CCL5_HUMAN; experiment: Biolayer interferometry (BLI) binding
In short: as §2

CCL27_HUMAN = molecular target: T11, CCL27_HUMAN (Homo sapiens, UniProt Q9Y4X3); experiment: Biolayer interferometry (BLI) binding
T11 sequence (Q9Y4X3 25-112): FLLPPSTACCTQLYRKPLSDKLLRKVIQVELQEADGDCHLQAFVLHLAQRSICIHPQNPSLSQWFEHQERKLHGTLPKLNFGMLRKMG
In short: as §2

CCL14_HUMAN = molecular target: T12, CCL14_HUMAN (Homo sapiens, UniProt Q16627); experiment: Biolayer interferometry (BLI) binding
T12 sequence (Q16627 20-93): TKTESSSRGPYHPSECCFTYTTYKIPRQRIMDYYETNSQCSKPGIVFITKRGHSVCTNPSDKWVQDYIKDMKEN
In short: as §2

CCL3L1_HUMAN [11] = molecular target: T10, CCL3L1_HUMAN; experiment: Biolayer interferometry (BLI) binding
In short: as §2

CCL11_HUMAN [12] = molecular target: T4, CCL11_HUMAN; experiment: Biolayer interferometry (BLI) binding
In short: as §2

CCL15_HUMAN = molecular target: T13, CCL15_HUMAN (Homo sapiens, UniProt Q16663); experiment: Biolayer interferometry (BLI) binding
T13 sequence (Q16663 22-113): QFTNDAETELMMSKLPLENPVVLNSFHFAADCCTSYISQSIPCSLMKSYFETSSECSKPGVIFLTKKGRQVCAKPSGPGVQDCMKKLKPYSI
In short: as §2

CCL23_HUMAN = molecular target: T14, CCL23_HUMAN (Homo sapiens, UniProt P55773); experiment: Biolayer interferometry (BLI) binding
T14 sequence (P55773 22-120): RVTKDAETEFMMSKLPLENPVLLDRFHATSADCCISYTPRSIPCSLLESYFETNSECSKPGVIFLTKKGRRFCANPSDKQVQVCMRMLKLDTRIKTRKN
In short: as §2

CCL22_HUMAN = molecular target: T15, CCL22_HUMAN (Homo sapiens, UniProt O00626); experiment: Biolayer interferometry (BLI) binding
T15 sequence (O00626 25-93): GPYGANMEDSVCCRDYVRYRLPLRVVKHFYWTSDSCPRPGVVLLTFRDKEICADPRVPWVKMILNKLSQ
In short: as §2

CCL18_HUMAN [13] = molecular target: T7, CCL18_HUMAN; experiment: Biolayer interferometry (BLI) binding
In short: as §2

CCL4L1_HUMAN = molecular target: T16, CCL4L1_HUMAN (Homo sapiens, UniProt Q8NHW4); experiment: Biolayer interferometry (BLI) binding
T16 sequence (Q8NHW4 24-92): T9 sequence (P13236 24-92) with S47G
In short: as §2

CCL4_HUMAN [14] = molecular target: T9, CCL4_HUMAN; experiment: Biolayer interferometry (BLI) binding
In short: as §2

CCL19_HUMAN [15] = molecular target: T6, CCL19_HUMAN; experiment: Biolayer interferometry (BLI) binding
In short: as §2

CCL24_HUMAN = molecular target: T17, CCL24_HUMAN (Homo sapiens, UniProt O00175); experiment: Biolayer interferometry (BLI) binding
T17 sequence (O00175 27-119): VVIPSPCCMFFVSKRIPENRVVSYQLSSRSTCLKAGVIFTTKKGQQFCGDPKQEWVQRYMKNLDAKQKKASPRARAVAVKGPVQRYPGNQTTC
In short: as §2

CCL7_HUMAN = CCL7_HUMAN (Homo sapiens, UniProt P80098); experiment: Biolayer interferometry (BLI) binding
In short: as §2

CCL13_HUMAN = CCL13_HUMAN (Homo sapiens, UniProt Q99616); experiment: Biolayer interferometry (BLI) binding
In short: as §2

T4 sequence (P51671 24-97): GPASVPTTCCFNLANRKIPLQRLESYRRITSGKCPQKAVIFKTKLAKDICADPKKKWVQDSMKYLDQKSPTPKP
T10 sequence (P16619 24-93): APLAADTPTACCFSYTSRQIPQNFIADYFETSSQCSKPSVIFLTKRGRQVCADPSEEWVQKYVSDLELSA
Chain of CCL13_HUMAN (Q99616 17-98): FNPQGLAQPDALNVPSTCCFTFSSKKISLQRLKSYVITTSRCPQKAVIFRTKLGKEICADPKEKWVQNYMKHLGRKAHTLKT
Chain of CCL7_HUMAN (P80098 24-99): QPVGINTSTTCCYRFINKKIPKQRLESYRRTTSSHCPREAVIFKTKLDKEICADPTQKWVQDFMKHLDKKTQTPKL
Chain of CXCL12_HUMAN (P48061 22-93): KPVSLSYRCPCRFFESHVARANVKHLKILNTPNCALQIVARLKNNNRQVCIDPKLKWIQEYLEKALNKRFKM

B1: P1005_AMBMA: tick CKBP, Amblyomma maculatum (protein, listed as Amblyomma maculatum)
chain: EKDTPKNIPGCGDTGTTAAPPADNPKHFAVYTDKHGCTIKVIGTWMTKEDHSRLPVSLRRVRASSGRVMLPASCQKICNDTVKNFPEGTPCRLVTGDPIKGKNHIKDGCIRGYCSSGVCVSDKRNISCYVPPN
For B1, the “Binding to CCL5_HUMAN, YSD” value (CCL5_HUMAN [1]) was “YES (An arbitrary threshold of >3 fold over background mean fluorescence intensity was chosen to describe confirmed re-tests. Where binding was detected data are indicated as “YES”)”, the “Binding to CCL17_HUMAN, YSD” value (CCL17_HUMAN) was “YES (An arbitrary threshold of >3 fold over background mean fluorescence intensity was chosen to describe confirmed re-tests. Where binding was detected data are indicated as “YES”)” and the “Binding to CCL1_HUMAN, YSD” value (CCL1_HUMAN) was “YES (An arbitrary threshold of >3 fold over background mean fluorescence intensity was chosen to describe confirmed re-tests. Where binding was detected data are indicated as “YES”)”. For the same molecule, the “Binding to CCL11_HUMAN, YSD” value (CCL11_HUMAN [2]) was “YES (An arbitrary threshold of >3 fold over background mean fluorescence intensity was chosen to describe confirmed re-tests. Where binding was detected data are indicated as “YES”)”, the “Binding to CCL3_HUMAN, YSD” value (CCL3_HUMAN [3]) was “YES (An arbitrary threshold of >3 fold over background mean fluorescence intensity was chosen to describe confirmed re-tests. Where binding was detected data are indicated as “YES”)” and the “Binding to CCL19_HUMAN, YSD” value (CCL19_HUMAN [4]) was “YES (An arbitrary threshold of >3 fold over background mean fluorescence intensity was chosen to describe confirmed re-tests. Where binding was detected data are indicated as “YES”)”.

B2: P1029_AMBPA: tick CKBP, Amblyomma parvum; named P1209_AMBPA in Table 1 (protein, listed as Amblyomma parvum)
chain: KTDTKNAAGELPPKVAIPGCEDPATTKAPLPDDPRYYGVTIDKDGCQRKVLGSSQRQQRQVQNGRKPGRKGRGRRPVFVDLKLTVDCKRKCNGTYSQLPDGEPCLVCDGEPYGRHRTIKGGCYQGNCSSGQCHRGERKVNCYIPKNITNNVLNSVNLAE
For B2, the “Binding to CCL5_HUMAN, YSD” value (CCL5_HUMAN [1]) was “YES (An arbitrary threshold of >3 fold over background mean fluorescence intensity was chosen to describe confirmed re-tests. Where binding was detected data are indicated as “YES”)”, the “Binding to CXCL12_HUMAN, YSD” value (CXCL12_HUMAN) was “YES (An arbitrary threshold of >3 fold over background mean fluorescence intensity was chosen to describe confirmed re-tests. Where binding was detected data are indicated as “YES”)” and the “Binding to CCL1_HUMAN, YSD” value (CCL1_HUMAN) was “YES (An arbitrary threshold of >3 fold over background mean fluorescence intensity was chosen to describe confirmed re-tests. Where binding was detected data are indicated as “YES”)”. For the same molecule, the “Binding to CCL11_HUMAN, YSD” value (CCL11_HUMAN [2]) was “YES (An arbitrary threshold of >3 fold over background mean fluorescence intensity was chosen to describe confirmed re-tests. Where binding was detected data are indicated as “YES”)” and the “Binding to CCL18_HUMAN, YSD” value (CCL18_HUMAN [5]) was “YES (An arbitrary threshold of >3 fold over background mean fluorescence intensity was chosen to describe confirmed re-tests. Where binding was detected data are indicated as “YES”)”.

B3: EVASIN1: previously described tick CKBP evasin 1, from Rhipicephalus sanguineus (protein, listed as Rhipicephalus sanguineus)
chain: EDDEDYGDLGGCPFLVAENKTGYPTIVACKQDCNGTTETAPNGTRCFSIGDEGLRRMTANLPYDCPLGQCSNGDCIPKETYEVCYRRNWRDKKN
In the case of B3, the Kd (CCL18_HUMAN [6]) is given as 3 nM, the “CCL8 binding (bound or not)” value (CCL8_HUMAN; 300 nM or 600 nM CCL8) is given as “did not” and the Kd (CCL4_HUMAN [7]) is given as 0.5 nM. For the same molecule, the Kd (CCL3_HUMAN [8]) was 0.1 nM, the “Previously described chemokine binding” value (chemokines) was “CCL3, CCL3L1, CCL4, CCL4L1, CCL14 and CCL18 but not CCL8; also recorded: CCL3, CCL3L1,; also recorded: CCL4, CCL18” and the Kd (CCL3L1_HUMAN [9]) was 0.05 nM.

B4: P991_AMBCA: tick CKBP, Amblyomma cajennense (protein)
chain: ENGEGTTQPDYDNSTDYYNYEDFKCTCPAPHLNNTNGTVMKPIGCYYTCNVTRCTAPDTYPCYNLTEHQAKNLTTSPTTLCAVGNCDHGICVPNGTKELCFKAPNLEE
modifications: Amblyomma cajennense
For B4, the Kd (CCL5_HUMAN [10]) was 1.47 nM, the Kd (CCL27_HUMAN) was 38.9 nM and the Kd (CCL14_HUMAN) was 0.43 nM. For the same molecule, the Kd (CCL3L1_HUMAN [11]) was 1.4 nM, the Kd (CCL11_HUMAN [12]) was 3.43 nM and the Kd (CCL15_HUMAN) was 159 nM. It also gave a Kd (CCL23_HUMAN) of 5.58 nM, a Kd (CCL22_HUMAN) of 3.97 nM and a Kd (CCL8_HUMAN; read-out: Kd, CCL8_HUMAN) of 8.79 nM. It also gave a Kd (CCL18_HUMAN [13]) of 0.209 nM, a Kd (CCL4L1_HUMAN) of 0.827 nM and a Kd (CCL4_HUMAN [14]) of 5.82 nM. For the same molecule, the Kd (CCL19_HUMAN [15]) was 14.4 nM, the Kd (CCL24_HUMAN) was 6.54 nM and the Kd (CCL7_HUMAN) was 0.514 nM. It also gave a Kd (CCL13_HUMAN) of 0.419 nM.
